Experimental data as given in article doi:10.1101/2021.12.16.473085 (2021).

Legend:
Experiment in all cases: SPR
hGH S51D = target: hGH S51D
hGH R178Y = target: hGH R178Y
hGH Q46R = target: hGH Q46R
hGH Q22H = target: hGH Q22H
hGH K41R = target: hGH K41R
hGH R178F = target: hGH R178F
hGH E65Y = target: hGH E65Y

Kd (hGH S51D): 0.6 nM
koff (hGH S51D): 0.0007 s⁻¹
Kd (hGH R178Y): 20 nM
koff (hGH R178Y): 0.006 s⁻¹
Kd (hGH Q46R): 40 nM
koff (hGH Q46R): 0.0006 s⁻¹
Kd (hGH Q22H): 8 nM
koff (hGH Q22H): 0.0004 s⁻¹
Kd (hGH K41R): 20 nM
koff (hGH K41R): 0.001 s⁻¹
Kd (hGH R178F): 30 nM
koff (hGH R178F): 0.008 s⁻¹
Kd (hGH E65Y): 0.4 nM
koff (hGH E65Y): 0.0003 s⁻¹
B1: human Growth Hormone Receptor (hGHR) (receptor)
chain: FSGSEATAAILSRAPWSLQSVNPGLKTNSSKEPKFTKCRSPERETFSCHWTDEVHHGTKNLGPIQLFYTRRNTQEWTQEWKECPDYVSAGENSCYFNSSFTSIWIPYCIKLTSNGGTVDEKCFSVDEIVQPDPPIALNWTLLNVSLTGIHADIQVRWEAPRNADIQKGWMVLEYELQYKEVNETKWKMMDPILTTSVPVYSLKVDKEYEVRVRSKQRNSGNYGEFSEVLYVTLPQMSQFTCEEDFYFPWLLIIIFGIFGLTVMLFVFLFSKQQRIKMLILPPVPVPKIKGIDPDLLKEGKLEEVNTILAIHDSYKPEFHSDDSWVEFIELDIDEPDEKTEESDTDRLLSSDHEKSHSNLGVKDGDSGRTSCCEPDILETDFNANDIHEGTSEVAQPQRLKGEADLLCLDQKNQNNSPYHDACPATQQPSVIQAEKNKPQPLPTEGAESTHQAAHIQLSNPSSLSNIDFYAQVSDITPAGSVVLSPGQKNKAGMSQCDMHPEMVSLCQENFLMDNAYFCEADAKKCIPVAPHIKVESHIQPSLNQEDIYITTESLTTAAGRPGTGEHVPGSEMPVPDYTSIHIVQSPQGLILNATALPLPDKEFLSSCGYVSTDQLNKIMP
